Test results from article PMC5976436, “Structure of a TRPM2 channel in complex with Ca^2+ explains unique gating regulation” (eLife, 2018).

Molecular target: the molecule itself
Assay: cryo-EM structure; purified nvTRPM2 in Buffer A (20 mM Tris-HCl pH 8.0, 150 mM NaCl, 0.06% digitonin, 1 mM DTT), 5 mg/ml, trace amounts of Ca2+, no ADPR; C4 symmetry

B1: Nematostella vectensis TRPM2 channel (transient receptor potential melastatin 2) (natural protein, UniProt A7T1N0 1-1551, looked up)
chain: MGKDSFTPLYDGGDSSHVHLNKFGSNQLSQSKKSWIARNFSRRECIRFVPKSHDVSRCKCGRPRERHSQQALESGQGSEEWNVASCTTKHPTNAYGEIDFEGYGGQKRAPYLRMSHDTDANLVITLMLKRWNLEIPNLVISVTGGAKSFVLKPRLREMFRRGLIKAAKTTGAWIITGGTNTGVMKHVGEAVKEQQLMFGSDTQVNVIGIATWGIVDKQSDLISEKNGKYPALYSMEPTPGHQGAMLDPNHSHFFLVDDGTEGKYGVEIGMRSRIEEAIMKVKTDSRSEAGSIGVPVVLLVLEGGPNTVATMYELIKKKVPAVVIDGSGRAASVVGFAYNHTIKRNVDGQTINVIDPQYEDEVRAKVVEVFGAKGADKTYSMIKDVLEDEKMISVYSLDGEISQDIDLAILKALLKANRSSPVAQLNLALAWNRIDLAKSDIFTEEQQWTTETLSAAMLTALLDDKAEFAELFLQNGLSMREFLSLDILCKLYAEVPGNTTIKPLLQKEMGKRQVKTIDMDVVGEVIEELMGDMFESYYRKDGHYFGELASYAEGLVLKNRKSSKDLLANINRIDPLPTPYLDVFLWAVLCNRRELARVLWEAGREPMAAALMASRLLKRMASRAQEDNTITDISSDLYDHARLFEERAVGVLDECFNENETLSQTLLVRELDHYSRMTALELAVSAESQDFIAHTSCQVLLTRLWMGTMAMNTRWWKVLVCLYLPVLIFPIIYFVPDEQHERQAAEREHQKSLNQKSSKVKSHKEKNDAPVVPVYRSKEEKAVSNDEEARVGTENEEEDFQLEDYIPEIREDDSMEVIMRNKKLGFCDRIMHFYSAPFSKFVGNVVGYLAFIFLYAYVVLFNFPRFDPAKTLGGIHPTEIVLYFWVFTILIEEIRQLAAKPPKYIKDKVSVYFSDTWNFVDIFSLTVFIIAIILRFFTNSRIFTASRIILSLDIIFFIVRSLQIFSVNRLLGPKLVMIQKMMQDLAQFIIILAVFTIAYGIALHAVMFPSPGIYARNNTWVTITSVVQYPYWQMYGELFLDEIQGEKPKEFGEVDPDGRWLSPLLLAIYMVFTNILLLNLLIAIFNYTFERVQEDSDKVWKFQRYDLVQEYHSRPVFAPPLVLLGHILIFIRWVWRMCRCGHPPRGSTMKIGLSPAEMEQMDNWEFQAAEMYIHQQQQKNSGTLEERVRALGDRVDCINSQLNRVLDSMSGTRAHALTDGNGLEGGHDSEGRLARMEVELSSNSESLQKILALLQQQPPVKGQAAVPIQLTLLHYKARSSPYPGSTAKRFAVQDNMVDWQVPFPDYKPVNYTAPVVLANPVWADKDLMAMSPRPELPYNQMDHTCNVNRVSYNGTYVVKDGLPLNPMGRTGMQGRGLLGRFGPNHAADPVVTRWKRTSAGVMLQGGKKVLEFVAIQRKDNNQWAIPGGMVEPGQLVTQALKAEFGEEAMAKLNVSQEEKERIAKQIERLFQQGQEIYKGYVDDPRNTDNAWMETVAVNFHDDKGDLFGDITLQAGDDAAAVRWQRVSGNIPLYASHVSILEKVAKMRDAAF
modifications: two N-acetylglucosamines attached to N1017
notes: TRPM2 of Nematostella vectensis, full-length protein; synthesized gene; the C-terminal NUDT9H domain is residues 1271-1551; model holds residues 6-23, 41-51, 86-546, 573-755, 812-1136 and 1148-1210; the NUDT9H domain is present in the protein but not seen in the map; also called nvTRPM2; not shown: GFP, C-terminal, cleaved
stoichiometry N: 4
